Paper PMC3256971 (The Journal of Experimental Medicine, 2011)

What was measured:
B16A-dKO mice = assay: Immunization and IL-2 ELISPOT in B16A-dKO mice; format: in vivo, mouse; conditions: 10 nmol in CFA, restimulation at 10 µM, Fig. 4 c
I-A^g7 [1] = conditions: ref Yu et al., 2000; Levisetti et al., 2007; cited from earlier work
I-A^g7 [2] = conditions: ref Yu et al., 2000; Levisetti et al., 2007; cited from earlier work; remark: listed apart in the source
soluble I-A^g7 (mouse) [3] = assay: radioligand binding
soluble I-A^g7 (mouse) [4] = assay: SDS stability of the complex

Molecule: SHLVEALYLVCGERG [B:9–23]
- IL-2 ELISPOT response to register 1 after immunization (B16A-dKO mice): detected a response to register 1 similar to that found in NOD mice
- binding affinity to I-A^g7 (I-A^g7 [1]): very low affinity
- rate of dissociation from I-A^g7 (I-A^g7 [2]): fast rate of dissociation

Molecule: radioactive peptide bearing the nested register 1:12–20 sequence (added N-terminal tyrosine, B16 tyrosine to phenylalanine)
- percent of the bound peptide lost in the first 20 min (soluble I-A^g7 (mouse) [3]): > 50%

Molecule: nested B:12–21 peptide with flanking residues
- IC50 (soluble I-A^g7 (mouse) [3]): 0.5 µM

Molecule: radioactive peptide bearing the nested register 2:13–21 sequence (added N-terminal tyrosine, B16 tyrosine to phenylalanine)
- percent SDS stable (soluble I-A^g7 (mouse) [4]): 70%

B1: nested register 3:14–22 peptide (insulin B:14–22 with flanking residues) (peptide)
peptide: TEGALYLVCGERGGS
- IC50 (soluble I-A^g7 (mouse) [3]): 5.5 µM

B2: nested register 1:12–20 peptide (insulin B:12–20 with flanking residues) (peptide)
peptide: TEGVEALYLVCGGGS
- IC50 (soluble I-A^g7 (mouse) [3]): 1.4 µM

B3: nested register 2:13–21 peptide (insulin B:13–21 with flanking residues) (peptide)
peptide: TEGEALYLVCGEGGS
- IC50 (soluble I-A^g7 (mouse) [3]): 0.7 µM
